In the supplement of paper PMC10567573:
± gives the standard deviation.

Test: protein stability index of a GFP-peptide fusion (GPS, HEK-293T) (PSI 1-6); higher = more stable
[1] = treatment: DMSO, c terminus: a fixed tail appended
[2] = treatment: MLN4924 1 uM, 8 h, c terminus: a fixed tail appended
[3] = treatment: DMSO, c terminus: native
[4] = treatment: MLN4924 1 uM, 8 h, c terminus: native
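Note: 24-mer peptide tiles fused after GFP, lentivirally expressed, FACS-sorted into six equal bins by GFP/DsRed ratio, decoded by Illumina sequencing, PSI is the read-weighted mean bin number.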

Sequence | protein stability index [1] | protein stability index [2] | protein stability index [3] | protein stability index [4]
INDEMQAKGIPQRAPPKRKRKRVK [PCMTD1] | 5.51 ± 0.23 | 5.36 ± 0.24 |  | 
CYYCQAYVHHQALLDVKNIAHQNK [HDAC6] | 2.61 ± 0.33 | 2.33 ± 0.48 |  | 
NYTATVRGLRGPNLTSPASITFTT [TNXB] | 2.66 ± 0.23 | 2.79 ± 0.41 |  | 
QPLNFVRFYLPLLIHQHEKVIYLD [GLT8D2] | 3.02 ± 0.59 | 3.03 ± 0.69 |  | 
RLQGLEADCVRGPDGVCLSGGRGP [PBXIP1] | 4.4 ± 0.082 | 4.24 ± 0.32 |  | 
YGKDIVKACSLLDVAVHMPCLGHT [ZBED1] | 2.14 ± 0.3 | 2.29 ± 0.33 |  | 
VSKELRMYDEKAHEWKSLAPMDAP [KLHL13] | 3.73 ± 0.36 | 4.04 ± 0.11 |  | 
SFGFPRTVKHIDAALSEENTGKTY [MMP1] | 4.13 ± 0.25 | 3.94 ± 0.16 |  | 
KIYAYPSNITSETGFRTISSLEEI [TMEM192] | 2.59 ± 0.15 | 2.9 ± 0.3 |  | 
QPGLSFLNLGSGTGYLSTMVGLIL [PCMTD1] | 2.15 ± 0.29 | 2.2 ± 0.31 |  | 
LLTVTATDRDEGANGEVTYSFRKL [PCDHGA10] | 4.1 ± 0.26 | 4.15 ± 0.33 |  | 
DTSFLPDRDREEEENRLREELRQE [FAM50A] | 5.17 ± 0.31 | 5.41 ± 0.18 |  | 
GQLYAMELQGFWMDIGQPKDFLTG [GMPPB] | 2.01 ± 0.47 | 1.92 ± 0.13 |  | 
RKTHVLLGRSHDTVQEAATSRRAR [MFSD9] | 4.64 ± 0.41 | 4.73 ± 0.27 |  | 
LGCFSDTEPWGGTAIRPLKILPWS [PNLIPRP1] | 2.1 ± 0.28 | 2.43 ± 0.57 |  | 
SRDEAALPELLLGALPVGSNLTSN [RETREG3] | 4.19 ± 0.23 | 4.43 ± 0.28 |  | 
KHNHSKSTWLILHHKVYDLTKFLE [CYB5A] | 2.6 ± 0.55 | 2.49 ± 0.41 |  | 
KSQLGFLNVTNYCHLAHELRLSCM [DCAF4] | 3.04 ± 0.41 | 2.57 ± 0.36 |  | 
LEPLKAIIQYRLPMKKNNNLYSWD [ACSBG2] | 2.57 ± 0.47 | 2.17 ± 0.2 |  | 
CAIQMFSFLFLGCSHSFLLAVMGY [OR10K2] | 3.41 ± 0.14 | 3.46 ± 0.37 |  | 
WIFVNLTVRFCILGKESFYDTFHT [HACD3] | 3.29 ± 0.26 | 3.05 ± 0.12 |  | 
LSSQCFSNISRPRDNPMCLKCDLQ [M1AP] | 3.2 ± 0.035 | 3.27 ± 0.15 |  | 
ISFGQLSDRFGRKKVYLTGFALDI [SLC22A15] | 2.97 ± 0.43 | 2.73 ± 0.59 |  | 

Sequence | protein stability index [1] | protein stability index [2] | protein stability index [3] | protein stability index [4]
IMNEKCVVENAEKILGYLNTNVLS [SLC6A17] | 2.92 ± 0.35 | 2.47 ± 0.5 |  | 
IDAVPVDENLFTGEDLDELEEELN [ZC3H15] | 5.53 ± 0.21 | 5.51 ± 0.19 |  | 
MTHQNVELFKELSINVMKQLIGSS [GMCL1] | 2.35 ± 0.21 | 2.37 ± 0.57 |  | 
VPIDIFSEEIRFYQLGEEAMEKFR [KCNA3] | 3.14 ± 0.28 | 3.23 ± 0.18 |  | 
ASCSKNCTNSPAIVRFSGQSRGVP [FBXO34] | 3.68 ± 0.27 | 3.63 ± 0.25 |  | 
DKENGENVGLESKYLKKREDSIPL [SASS6] | 5.03 ± 0.18 | 4.76 ± 0.24 |  | 
LLQSFHGHGADVLCLDLAPSETGN [GNB5] | 3.23 ± 0.3 | 3.39 ± 0.14 |  | 
KLRAMKELSEAAEAQHGPHSAVAR [STX11] | 4.51 ± 0.13 | 4.6 ± 0.17 |  | 
KAVQYEEKNPCRTLCCFCCPCLK [STX11] |  |  | 3.59 ± 0.36 | 3.7 ± 0.084
KSVAWEGGACPAFLPSLRPPPLTS [NCF4] | 3.12 ± 0.36 | 3.11 ± 0.078 |  | 
QNCKKKLGKLPPQYALELLTVYAW [OAS1] | 2.6 ± 0.58 | 2.25 ± 0.64 |  | 
SSAVYFAEADEPTTHFQSIPDAFW [KCNA4] | 2.54 ± 0.16 | 2.67 ± 0.33 |  | 
EAPALGGGEYQEPGGNVKGVWAPP [BEX5] | 4.57 ± 0.37 | 4.71 ± 0.14 |  | 
PEAAAAQLRATAGSLILPPGPGGT [FCHO1] | 4.26 ± 0.41 | 4.26 ± 0.53 |  | 
CLDTIDKSTMDAISAEGFTDIDID [BTBD1] | 4.88 ± 0.19 | 4.82 ± 0.22 |  | 
HKQLLLFHNAVSAYFAGNQKQLEQ [ARFIP2] | 2.19 ± 0.45 | 2.17 ± 0.18 |  | 
FHGTRQYKFDPKTKRILTLQKANS [MMP1] | 2.38 ± 0.5 | 2.6 ± 0.54 |  | 
QRQVWLLFEYPESSGPARGIAIVS [KCNA3] | 2.69 ± 0.21 | 2.48 ± 0.77 |  | 
EPHKCPECGKRFLRSSDLYRHQRL [ZNF449] | 3.96 ± 0.36 | 4.39 ± 0.47 |  | 
TVAMSTLNFCGPNVINHFYCDLPQ [OR3A1] | 2.39 ± 0.47 | 2.22 ± 0.17 |  | 
DDSGGPTPSSYAPSHPPRPLLPLD [ZBTB22] | 4.54 ± 0.25 | 4.79 ± 0.22 |  | 
SLLLKKPLRVDLILENTSKVPAPK [NOP53] | 2.81 ± 0.16 | 2.98 ± 0.15 |  | 
RDTRDYAPPPRDYTYRDYGHSSSR [RBMX] | 4.01 ± 0.14 | 3.65 ± 0.77 |  | 

Sequence | protein stability index [1] | protein stability index [2] | protein stability index [3] | protein stability index [4]
KLIRDFDEKQQEANETLAEMEEEL [VTI1B] | 4.89 ± 0.32 | 5.3 ± 0.19 |  | 
SAQRSKDPNSQVGACIVNSENKIV [DCTD] | 4.91 ± 0.17 | 4.98 ± 0.12 |  | 
ERLAEAEKSQLIMQAEAEAASVRM [FLOT1] | 4.84 ± 0.39 | 4.66 ± 0.3 |  | 
GRKFLQKHLNASNPTEPATIIFTA [TOR1AIP2] | 2.35 ± 0.36 | 2.13 ± 0.32 |  | 
KVEVDMEKIAAEIAQAEEQARKRQ [SMARCE1] | 4.99 ± 0.27 | 4.78 ± 0.37 |  | 
AELHAHGPAAFVDYFERNWEPRRD [ZSWIM9] | 3.89 ± 0.3 | 4.07 ± 0.23 |  | 
TVKLLVEEKADVLARGPLNQTALH [RIPK4] | 3.35 ± 0.58 | 3.4 ± 0.37 |  | 
GPILQKDYVQLENQWETPPEDLQT [ZNF449] | 4.94 ± 0.11 | 5 ± 0.28 |  | 
PDKESMYYPRVQHYRELLDSLPMD [GDAP1] | 3.38 ± 0.23 | 3.48 ± 0.35 |  | 
PPHRRRLLFACSPPPASQPVVKAL [CDC25A] | 2.64 ± 0.22 | 2.98 ± 0.1 |  | 
GLSQGLVDREKGLSAEPGWQAKRE [CHGA] | 4.92 ± 0.29 | 4.84 ± 0.4 |  | 
DGSGMPKTMQSEETRVWHRRDGKW [CAMK2D] | 4.49 ± 0.35 | 4.59 ± 0.095 |  | 
HRDSSQAIPITELTKSQVQDKPYK [ZNF8] | 4.96 ± 0.2 | 5.1 ± 0.3 |  | 
LPSRPPPLLSPLLASRNPCPWHYL [RSPH3] | 2.27 ± 0.2 | 2.15 ± 0.22 |  | 
NSELVQSGKSEISELRRTMQALEI [KRT17] | 3.94 ± 0.18 | 3.94 ± 0.42 |  | 
AEQEALTGECKELEKKNEALKERA [ATF4] | 5.3 ± 0.28 | 5.28 ± 0.27 |  | 
HMLLNTTLNIKETDSKELSMAKEV [ZBED1] | 4.26 ± 0.17 | 4.35 ± 0.2 |  | 
TESEARYSSQLSQVQSLITNVESQ [KRT33B] | 4.66 ± 0.31 | 4.75 ± 0.071 |  | 
EVDSGRQIEYEYKLAQALHEMREQ [LMNB1] | 4.51 ± 0.23 | 4.43 ± 0.23 |  | 
RNRPSFDAILYYYQSGGRLKRPVN [KCNA4] | 2.08 ± 0.27 | 2.42 ± 0.5 |  | 
KKFRSSTSSSLGDKSEYLEMEEGV [KCNA4] | 4.6 ± 0.37 | 4.91 ± 0.28 |  | 
WPKLCPCLRSGIGSSQALGPSPPL [MYCL] | 2.46 ± 0.41 | 2.47 ± 0.14 |  | 
RIYRMIKLGLGIDEDEVAAEEPNA [HSP90AB1] | 2.95 ± 0.24 | 3.19 ± 0.38 |  | 

Sequence | protein stability index [1] | protein stability index [2] | protein stability index [3] | protein stability index [4]
GAIAVFVYASDKEWIRFDQSNVLC [PTGFR] | 3.02 ± 0.34 | 2.87 ± 0.47 |  | 
QPPTTTVARSGTPAVENKQQIGDA [PLK2] | 5.4 ± 0.16 | 5.37 ± 0.37 |  | 
LRIFVWLLLLYFMQVIAIVLYLMM [PHTF1] | 2.99 ± 0.71 | 2.75 ± 0.55 |  | 
GLAKCNGLSHSHDLSMDGLFGTIA [RIPK4] | 2.47 ± 0.43 | 2.38 ± 0.13 |  | 
HPVNPPYYIPLVELVPHPETAPTT [CRYL1] | 3.51 ± 0.33 | 3.51 ± 0.22 |  | 
LGESKEHMESRMVTETEETQEKKA [SDE2] | 5.51 ± 0.3 | 5.75 ± 0.12 |  | 
ATDYLRYKPVVLLQGLSLIVTWFM [SLC19A2] | 2.35 ± 0.12 | 2.42 ± 0.19 |  | 
LYRNGKDQDGDQAPEYRGRTELLK [MOG] | 4.59 ± 0.14 | 4.68 ± 0.34 |  | 
VAFRGLKGKKLYPVVSAVWGHCEV [SPSB4] | 1.83 ± 0.46 | 2.71 ± 0.2 |  | 
HVAAAVLRIRSVEGRKKAFSTCGS [OR3A1] | 2.3 ± 0.24 | 2.22 ± 0.34 |  | 
RDPAAGAAPFRFVARPVRFPREHQ [ZNF511] | 2.61 ± 0.72 | 3.23 ± 0.68 |  | 
ESFLAWKKRKRQEKIDKLEQDMER [ZC3H15] | 3.8 ± 0.2 | 4.22 ± 0.33 |  | 
IKPSNIFISRTSIPNAASEEGDED [WEE1] | 4.71 ± 0.24 | 4.97 ± 0.27 |  | 
RPSQYRPDGLRSGDGVPPRSLQDG [LCOR] | 4.83 ± 0.091 | 4.85 ± 0.17 |  | 
SPVAHKHLSRQKIDPLLYMTEWFM [TBC1D10A] | 2.19 ± 0.18 | 2.23 ± 0.16 |  | 
VAEPLAGPACVTVILPSCVPYNK [KLHL14] |  |  | 2.32 ± 0.37 | 2.36 ± 0.32
GAGPPEPLRICPLHISVKEELDG [TRIM35] |  |  | 4.21 ± 0.32 | 4.56 ± 0.14
LSPKIMQEAFLVQEVVELPVTERQ [TBC1D10A] | 3.98 ± 0.19 | 3.91 ± 0.39 |  | 
MEEDKLLSAVPEEGDATRDPGPEP [PSD2] | 5.54 ± 0.1 | 5.52 ± 0.16 |  | 
RSNTLRERSQVRGSAPPRATPGGG [PCDHGC5] | 4.68 ± 0.17 | 4.47 ± 0.28 |  | 
